Experiments:
[1] = target: GST-TET2 CR (cysteine-rich domain of TET2, residues 1129-1322, fused to glutathione S-transferase), wild type (UniProt Q6N021); assay: MST; microscale thermophoresis, Monolith NT.115, analysed by PRISM; mononucleosome binding to the wild-type CR domain
[2] = target: GST-TET2 CR (cysteine-rich domain of TET2, residues 1129-1322, fused to glutathione S-transferase), wild type (UniProt Q6N021); assay: MST; microscale thermophoresis, Monolith NT.115, analysed by PRISM; biotinylated histone H3 peptides with GST-TET2 CR wild type or W1291R
GST-TET2 CR W1291R = GST-TET2 CR W1291R (UniProt Q6N021); assay: as above

Substance | Kd [1] | Kd [2] | Kd (GST-TET2 CR W1291R)
mononucleosome (complex) | 0.387 µM | – | –
histone H3_(21-44) K36me2 peptide (from UniProt P68431 22-45) | – | 0.735 µM | 27.5 µM
histone H3_(21-44) K36me1 peptide (from UniProt P68431 22-45) | – | 0.688 µM | 11.1 µM
histone H3_(21-44) unmodified peptide (from UniProt P68431 22-45) | – | 21 µM | 0.946 µM
